Assay results as given in patent US20260185137A1 (University of Texas, published 2026).

B1: R1-I77R, RING domain construct of rhesus monkey TRIM5alpha with the I77R mutation (enzyme, UniProt Q0PF16 2-90, looked up)
chain: ASGILLNVKEEVTCPICLELLTEPLSLHCGHSFCQACITANHKKSMLYKEGERSCPVCRISYQPENIQPNRHVANRVEKLREVKLSPEE
notes: range 2-90; Tags were removed by TEV protease
B2: R1-WT, monomeric RING domain construct of rhesus monkey TRIM5alpha (enzyme, UniProt Q0PF16 2-90, looked up)
chain: ASGILLNVKEEVTCPICLELLTEPLSLHCGHSFCQACITANHKKSMLYKEGERSCPVCRISYQPENIQPNRHVANIVEKLREVKLSPEE
notes: range 2-90; Expressed with N-terminal 6His-GB1-TEV tags that were removed by TEV protease; also called isolated RING monomer

Legend:
[1] = target: the molecule itself; assay: 15N-TROSY HSQC NMR (self-association of the RING domain); sample concentration is not printed on the sheet
Method: NMR spectroscopy. All NMR experiments were performed in 50 mM Sodium Phosphate (pH 7.5), 150 mM NaCl, 1 mM TCEP, 10% (v/v) D₂O, 0.04% (w/v) NaN₃, and the data collected at 298K on a Bruker Avance 700-MHz spectrometer equipped with a cryoprobe. Backbone assignments were carried out using standard TROSY triple resonance NMR experiments (HNCO, HN(CA)CO, HN(CO)CA, HNCA, HNCACB, and HN(CO)CACB). Protein concentrations for each experiment are shown in the corresponding figures or noted in figure legends. The NMR data were processed using NMRPipe and spectra evaluated using NMRFAM-Sparky.

[2] = target: the molecule itself; assay: sedimentation equilibrium analytical ultracentrifugation, monomer-dimer self-association model
Method: Analytical Ultracentrifugation. Sedimentation velocity experiments were performed with a Beckman Optima XL-I analytical ultracentrifuge (Beckman Coulter, Indianapolis, IN) equipped with a 4-hole AnTi-60 rotor and 2-channel centerpiece cells. Samples were in a buffer containing 50 mM Tris (pH 7.5), 150 mM NaCl, and 1 mM TCEP. Sedimentation velocity experiments were carried out at 20° C. and data collection performed in the intensity mode at 280 nm. […] All c(S) distributions were calculated with fitted frictional ratios (f/f₀) and meniscus positions were all fitted with a maximum entropy regularization cutoff of 0.95. Sedimentation equilibrium experiments were carried out using six-channel centerpieces, each chamber containing 110 μL samples. Equilibrium experiments were conducted at 20° C. and collection of data performed in the intensity mode at 280 nm and 230 nm. […] Equilibrium distributions were fitted to a monomer-dimer self-association model.

Protein	binding result [1]	Kd [2]
B1	no binding	–
B2	–	~60 µM
